Results: US20230321261A1, “AXL-SPECIFIC ANTIBODY-DRUG CONJUGATES FOR CANCER TREATMENT” (GENMAB A/S, priority 2016, published 2023)

Experiments:
[1] = molecular target: T1, AXLECDHis (extracellular domain of human AXL) (Homo sapiens, UniProt P30530); assay: Binding affinity by Bio-Layer Interferometry (ForteBio OctetRED384); details: 1:1 model, 30° C.
T1 construct: the extracellular domain (ECD) of human AXL (aa 1-447) with a C-terminal His tag (AXLECDHis); His tag (C); made in house; host or cells: HEK-293F

full length human AXL = molecular target: T2, full length human AXL (Homo sapiens, UniProt P30530); assay: Flow cytometry binding to transfected HEK293T cells; details: at least 3 experiments
T2 construct: expression constructs for full length human AXL; expressed in transfected cells; host or cells: HEK293T
Method: HEK293T cells were transiently transfected with expression constructs for full length human AXL, human AXL with a cynomolgus monkey extracellular domain (ECD) or human AXL with a mouse ECD (see Example 1). Binding of HuMab-AXL antibodies to these cells was evaluated by flow cytometry. Transfected HEK293 cells were incubated with serial dilutions of AXL-antibodies (final concentration range 0.0024-10 µg/mL) for 30 minutes at 4° C. […] Next, cells were washed twice in PBS/0.1% BSA/0.02% azide, resuspended in 120 µL PBS/0.1% BSA/0.02% azide and analyzed on a FACS Cantoll (BD Biosciences).
(§1) Binding curves were analyzed using non-linear regression (sigmoidal dose-response with variable slope) using GraphPad Prism V5.04 software (GraphPad Software, San Diego, CA, USA).

[2] = molecular target: T3, human AXL with a cynomolgus monkey extracellular domain (ECD) (Homo sapiens, UniProt P30530, P441T/S191N/S285L/T105A/T112A/T125N/T443A); assay: as above; details: at least 3 experiments
T3 construct: aa 1-447); human AXL transmembrane and intracellular part (the remainder of human AXL after the ECD; expressed in transfected cells; host or cells: HEK293T

AXL on A431 cells = molecular target: T4, AXL on A431 cells (Homo sapiens, UniProt P30530); assay: Antibody binding to A431 cells with or without Gas6 pre-incubation; details: for Antibody binding to A431 cells: EC50 in presence of Gas6 (µg/mL) mean (s.d.) / Antibody binding to A431 cells: Maximal binding in presence of Gas6 (% of binding in absence of Gas6) mean (s.d.): pre-incubation with 10 µg/mL Gas6; for Antibody binding to A431 cells: EC50 w/o Gas6 (µg/mL) mean (s.d.): without Gas6 pre-incubation
T4 construct: AXL-positive A431 cells were incubated; endogenous in cells; host or cells: A431

[3] = molecular target: T5, Gas6 binding to AXL on A431 cells (Homo sapiens, UniProt P30530); assay: Gas6 binding to A431 cells pre-incubated with AXL antibodies; details: pre-incubation with 10 µg/mL antibody; control antibody b12
T5 construct: endogenous in cells; host or cells: A431
Method: Alternatively, A431 cells were pre-incubated with 10 µg/mL AXL antibodies (15 minutes, 4° C.) to assess if the AXL ligand Gas6 could still bind in presence of AXL antibodies. […] After washing three times in PBS/0.1% BSA/0.02% azide, cells were incubated with mouse anti-Gas6 IgG2a (R&D Systems; cat no. MAB885) at 4° C. for 30 min. After washing three times in PBS/0.1% BSA/0.02% azide, cells were incubated with FITC-labelled goat anti-mouse IgG (Dako, Heverlee, Belgium; cat no. F049702) at 4° C. for 30 min in the dark. Next, cells were washed twice in PBS/0.1% BSA/0.02% azide, resuspended in 120 µL PBS/0.1% BSA/0.02% azide and analyzed on a FACS Cantoll (BD Biosciences).
as §1
Therefore, binding of Gas6 to A431 cells that had been pre-incubated with 10 µg/mL AXL antibodies was tested as described in Example 2.

[4] = molecular target: T6, human-mouse chimeric AXL mutants (Homo sapiens, UniProt P30530, A273L/A287V/A310S/E275K/E281D/G297E/H300L/L233V/M269V/N230H/P276S/P329T/Q227R/Q272W/R229H/S285L/S298K/S319P/T259N/T312S/V309I); assay: AXL domain specificity using human-mouse AXL chimeric molecules (flow cytometry); type: binding; details: 1 µg/mL antibody
T6 construct: constructs for expression of various full-length AXL variants were generated; expressed in transfected cells; host or cells: HEK293F

[5] = molecular target: T7, human-mouse chimeric AXL mutants (Homo sapiens, UniProt P30530, A151P/A183V/D170T/D266N/G187S/H193Q/P184T/P188S/R148K/R190H/T149A/T182P/V194T); assay: as above; type: binding; details: 1 µg/mL antibody
T7 construct: constructs for expression of various full-length AXL variants were generated; expressed in transfected cells; host or cells: HEK293F

A431 cells = assay: Antibody-dependent cell-mediated cytotoxicity (51Cr release); type: cell-based, human; details: concentrations up to 10 µg/mL; PBMC effector to target ratio 100:1
Method: The ability of anti-AXL antibodies to induce ADCC of A431 epidermoid carcinoma cells was determined as explained below. As effector cells, peripheral blood mononuclear cells from healthy volunteers (UMC Utrecht, The Netherlands) were used.
A431 cells were collected (5×10^6 cells) in culture medium (RPMI 1640 culture medium supplemented with 10% fetal calf serum (FSC)), to which 100 µCi ^51Cr (Chromium-51; Amersham Biosciences Europe GmbH, Roosendaal, The Netherlands) had been added, and the mixture was incubated in a 37° C. water bath for 1 hour (hr) while shaking. After washing of the cells (twice in PBS, 1200 rpm, 5 min), the cells were resuspended in RPMI1640/10% FSC and counted by trypan blue exclusion. […]
Peripheral blood mononuclear cells (healthy volunteers, UMC Utrecht, Utrecht, The Netherlands) were isolated from 45 mL of freshly drawn heparin blood by Ficoll (Bio Whittaker; lymphocyte separation medium, cat 17-829E) according to the manufacturer’s instructions. After resuspension of cells in RPMI1640/10% FSC, cells were counted by trypan blue exclusion and diluted to a density of 1×10^7 cells/mL.
50 µl of ^51Cr-labeled targets cells were pipetted into 96-well plates, and 50 µl of antibody were added, diluted in RPMI1640/10% FSC (3-fold dilutions at final concentrations range 0.01-10 µg/mL). […] The percentage specific lysis was calculated as follows: […]

[6] = molecular target: T8, human AXL transiently expressed by HEK-293F cells (Homo sapiens, UniProt P30530); assay: Homogeneous antigen specific screening assay (FMAT); type: binding
T8 construct: TH1021-AXL (HEK-293F cells transiently expressing full length human AXL; produced as described above); expressed in transfected cells; host or cells: HEK-293F

PAXF1657 tumors = assay: PAXF1657 pancreas cancer PDX model; type: in vivo, NMRI nu/nu mice; details: mouse, in vivo
[7] = molecular target: T9, human-mouse chimeric AXL mutants (Homo sapiens, UniProt P30530, A349V/A358V/A407T/A411S/A425P/A431G/C405S/D266N/F350L/G397R/H352R/I340V/K439S/P444R/Q372R/Q387R/Q394R/Q436H/R386T/S398P/S400A/S442P/T343M/T443P/V434L); assay: AXL domain specificity using human-mouse AXL chimeric molecules (flow cytometry); type: binding; details: 1 µg/mL antibody
T9 construct: constructs for expression of various full-length AXL variants were generated; expressed in transfected cells; host or cells: HEK293F

B1: IgG1-AXL-733: AXL-specific human IgG1,κ antibody, VH SEQ ID NO:34, VL SEQ ID NO:35, FN1 domain binding (antibody, listed as Homo sapiens, V domains shown)
VH: QVQLVESGGGVVQPGRSLRLSCAASGFSFSTYAMHWVRQAPGKGLEWVAVISYDGDNKYSADSVKGRFTISRDNSKNTLYLQMNSLRAEDTAVYYCARGRKLGIDAFDIWGQGTMVTVSS
VL: AIQLTQSPSSLSASVGDRVTITCRASQGISSALAWYQQKPGKAPKLLIYDASSLESGVPSRFSGSGSGTDFTLTISGLQPEDFATYYCQQFNSYPFTFGPGTKVDIK
[1]
  Binding affinity (OCTET) Kdis: 0.0097 s⁻¹
  Binding affinity (OCTET) Kon: 160000 M⁻¹ s⁻¹
Full length human AXL
  Binding EC50 (µg/mL) human AXL Average (s.d.): 0.176 (0.094) µg/mL
[2]
  Binding EC50 (µg/mL) cynomolgus AXL Average (s.d.): 0.254 (0.114) µg/mL
AXL on A431 cells
  Antibody binding to A431 cells: EC50 in presence of Gas6 (µg/mL) mean (s.d.): 0.62 (0.23) µg/mL
  Antibody binding to A431 cells: Maximal binding in presence of Gas6 (% of binding in absence of Gas6) mean (s.d.): 93 (5) %
  Antibody binding to A431 cells: EC50 w/o Gas6 (µg/mL) mean (s.d.): 0.49 (0.51) µg/mL
[3]
  Gas6 binding to A431 cells: Maximal binding in presence of AXL antibodies (% of binding in presence of control antibody) mean (s.d.): 96 (5) %
[4]
  binding to hsAXL-mmFN1: reduced binding

B2: IgG1-AXL-148: AXL-specific human IgG1,κ antibody, VH SEQ ID NO:5, VL SEQ ID NO:6, Ig2 domain binding (antibody, listed as Homo sapiens, V domains shown)
VH: EVQLLESGGGLVQPGGSLRLSCAASGFTFSSYAMTWVRQAPGKGLEWVSAISISGGSTFYADSVKGRFTISRDNSKNTLYLQMNSLRAEDTAVYYCRGYSGYVYDAFDFWGQGTMVTVSS
VL: DIQMTQSPSSLSASVGDRVTITCRASQGISNWLAWYQQKPEKAPKSLIYAASSLQSGVPSRFSGSGSGTDFTLTISSLQPEDFATYYCQQYNSYPLTFGGGTKVEIK
[1]
  Binding affinity (OCTET) Kdis: 0.0044 s⁻¹
  Binding affinity (OCTET) Kon: 230000 M⁻¹ s⁻¹
Full length human AXL
  Binding EC50 (µg/mL) human AXL Average (s.d.): 0.094 (0.059) µg/mL
[2]
  Binding EC50 (µg/mL) cynomolgus AXL Average (s.d.): 0.152 (0.080) µg/mL
AXL on A431 cells
  Antibody binding to A431 cells: EC50 in presence of Gas6 (µg/mL) mean (s.d.): 0.20 (0.30) µg/mL
  Antibody binding to A431 cells: Maximal binding in presence of Gas6 (% of binding in absence of Gas6) mean (s.d.): 93 (5) %
  Antibody binding to A431 cells: EC50 w/o Gas6 (µg/mL) mean (s.d.): 0.11 (0.13) µg/mL
[3]
  Gas6 binding to A431 cells: Maximal binding in presence of AXL antibodies (% of binding in presence of control antibody) mean (s.d.): 106 (7) %
[5]
  binding to hsAXL-mmIg2: strongly reduced binding
A431 cells
  ADCC in A431 cells (percentage specific lysis): did not induce significant ADCC
[6]
  Maximal binding (Arbitrary units): 3499 Arbitrary units
PAXF1657 tumors
  anti-tumor activity in the PAXF1657 model (FIG. 10B, 10C): did not result in anti-tumor activity

B3: IgG1-AXL-726: AXL-specific human IgG1,κ antibody, VH SEQ ID NO:31, VL SEQ ID NO:33, FN2 domain binding (antibody, listed as Homo sapiens, V domains shown)
VH: QVQLQQWGAGLLKPSETLSLTCAIDGGSFSGYYWSWIRQPPGKGLEWIGEISHSGRTNYNPSLKSRVTISIDTSKNQFSLKLSSVAAADTAVYYCARFITMIRGAIITHFDYWGQGALVTVSS
VL: DIQMTQSPSSLSASVGDRVTITCRASQGISSWLAWYQQKPEKAPKSLIYAASSLQSGVPSRFSGSGSGTDFTLTISSLQPEDFATYYCQQYHSYPYTFGQGTKLEIK
[1]
  Binding affinity (OCTET) Kdis: 0.00013 s⁻¹
  Binding affinity (OCTET) Kon: 240000 M⁻¹ s⁻¹
Full length human AXL
  Binding EC50 (µg/mL) human AXL Average (s.d.): 0.288 (0.206) µg/mL
[2]
  Binding EC50 (µg/mL) cynomolgus AXL Average (s.d.): 0.349 (0.160) µg/mL
AXL on A431 cells
  Antibody binding to A431 cells: EC50 in presence of Gas6 (µg/mL) mean (s.d.): 0.55 (0.69) µg/mL
  Antibody binding to A431 cells: Maximal binding in presence of Gas6 (% of binding in absence of Gas6) mean (s.d.): 97 (10) %
  Antibody binding to A431 cells: EC50 w/o Gas6 (µg/mL) mean (s.d.): 0.32 (0.35) µg/mL
[3]
  Gas6 binding to A431 cells: Maximal binding in presence of AXL antibodies (% of binding in presence of control antibody) mean (s.d.): 98 (10) %
[7]
  binding to hsAXL-mmFN2: lost
[6]
  Maximal binding (Arbitrary units): 3154 Arbitrary units

B4: IgG1-AXL-726-M101L: point mutant of IgG1-AXL-726, VH SEQ ID NO:32, VL SEQ ID NO:33 (antibody, listed as Homo sapiens, V domains shown)
VH: QVQLQQWGAGLLKPSETLSLTCAIDGGSFSGYYWSWIRQPPGKGLEWIGEISHSGRTNYNPSLKSRVTISIDTSKNQFSLKLSSVAAADTAVYYCARFITLIRGAIITHFDYWGQGALVTVSS
VL: DIQMTQSPSSLSASVGDRVTITCRASQGISSWLAWYQQKPEKAPKSLIYAASSLQSGVPSRFSGSGSGTDFTLTISSLQPEDFATYYCQQYHSYPYTFGQGTKLEIK
[1]
  Binding affinity (OCTET) Kdis: 6.9e-05 s⁻¹
Full length human AXL
  Binding EC50 (µg/mL) human AXL Average (s.d.): 0.184 (0.117) µg/mL
[2]
  Binding EC50 (µg/mL) cynomolgus AXL Average (s.d.): 0.250 (0.066) µg/mL
A431 cells
  ADCC in A431 cells (percentage specific lysis): did not induce significant ADCC
